According to patent US20220370545A1, “INTEGRIN RECEPTOR ALPHA V BETA 3 AND ITS LIGAND INVOLVED IN CHRONIC ITCH” (North Carolina State University, priority 2019, published 2022):

B1: periostin: fasciclin extracellular matrix protein, endogenous ligand of integrin αvβ3; mouse recombinant used (protein)
chain: NSYYDKVLAHSRIRGRDQGPNVCALQQILGTKKKYFSSCKNWYQGAICGKKTTVLYECCPGYMRMEGMKGCPAVMPIDHVYGTLGIVGATTTQHYSDVSKLREEIEGKGSYTYFAPSNEAWENLDSDIRRGLENNVNVELLNALHSHMVNKRMLTKDLKHGMVIPSMYNNLGLFINHYPNGVVTVNCARVIHGNQIATNGVVHVIDRVLTQIGTSIQDFLEAEDDLSSFRAAAITSDLLESLGRDGHFTLFAPTNEAFEKLPRGVLERIMGDKVASEALMKYHILNTLQCSEAITGGAVFETMEGNTIEIGCEGDSISINGIKMVNKKDIVTKNGVIHLIDEVLIPDSAKQVIELAGKQQTTFTDLVAQLGLASSLKPDGEYTLLAPVNNAFSDDTLSMDQRLLKLILQNHILKVKVGLSDLYNGQILETIGGKQLRVFVYRTAICIENSCMVRGSKQGRNGAIHIFREIIQPAEKSLHDKLRQDKRFSIFLSLLEAADLKDLLTQPGDWTLFAPTNDAFKGMTSEERELLIGDKNALQNIILYHLTPGVYIGKGFEPGVTNILKTTQGSKIYLKGVNETLLVNELKSKESDIMTTNGVIHVVDKLLYPADIPVGNDQLLELLNKLIKYIQIKFVRGSTFKEIPMTVYRPAMTKIQIEGDPDFRLIKEGETVTEVIHGEPVIKKYTKIIDGVPVEITEKQTREERIITGPEIKYTRISTGGGETGETLQKFLQKEVSKVTKFIEGGDGHLFEDEEIKRLLQGDTPAKKIPANKRVQGPRRRSREGRSQ

Assays:
TRPV1 receptor = target: T1, TRPV1 receptor (Mus musculus, UniProt Q704Y3); test: Capsaicin-induced calcium response in DRG neurons (specificity control); assay type: cell-based; details: perfusion with 100 nM cilengitide
T1 construct: endogenous in cells; host or cells: primary mouse dorsal root ganglion neurons
Method: Before imaging, cells were incubated in 350 μL of complete media containing 1 μM Fura-2 AM (Enzo Life Sciences, Farmingdale, New York, United States of America) for 30 min at 37° C. with 5% CO2. During imaging, the cells were perfused with a buffer containing the following: 135 mM sodium chloride, 3.2 mM potassium chloride, 2.5 mM magnesium chloride, 2.8 mM calcium chloride, 667 μM monobasic sodium phosphate, 14.2 mM sodium bicarbonate, and 10.9 mM D-glucose (all from VWR International, Radnor, Pennsylvania, United States of America) with a pH between 7.00 and 7.40. The buffer and the holding plate were kept at 37° C. while imaging. Imaging data was collected on a TE200 inverted microscope using NIS Elements software (Nikon, Melville, New York, United States of America). Cells were exposed to 340 nm and 380 nm wavelengths for 100 ms and the A340/A380 ratio was calculated. Traces were analyzed using Excel and responses greater than 10% of the baseline were counted. Each data point in the scatter plots represented one coverslip.
Calcium Imaging: Calcium imaging will be performed on the DRG neurons as previously described (Pitake et al., 2018). Briefly, DRG neurons will be incubated for longer than 30 min in DMEM containing 1 μM of a fluorescent indicator Fura-2 AM (Enzo Life Sciences, Inc., Farmingdale, N.Y., United States of America). The neurons will be perfused in a standard bath solution containing 140 mM NaCl, 5 mM KCl, 2 mM MgCl2, 2 mM CaCl2, 10 mM Hepes and 10 mM D-glucose at pH 7.4 adjusted with NaOH. A calcium-free bath solution will be prepared by omitting 2 mM CaCl2 from the standard bath solution […] adding 5 mM EGTA. Fura-2 fluorescence excited at 340 and 380 nm and emission will be monitored at 510 nm with a digital CCD camera (Andor Clara DR-4152, Andor Technology Ltd, Belfast, United Kingdom). Data will be obtained by every 100 ms using an imaging software (NIS-Elements AR 4.13.04, Nikon Corporation, Tokyo, Japan) and analyzed by Microsoft Excel (Microsoft Corporation, Redmond, Wash., United States of America). Values of calcium responses will be normalized by dividing measured values (F) with average values of initial 5 frames (F0) of each cell and described as F/F0. In this study, changes in each response to an application with F/F0>0.1 will be regarded as positive. Cells not responding to 100 mM KCl, which is applied at the end of each experiment, will be regarded as non-neuronal cells and excluded from analysis.
Additional inhibitors were studied using the calcium imaging method described in Example 3. Briefly, the Fura2-AM calcium imaging method was performed on live dorsal root ganglia (DRG) neurons (ex vivo). The DRG neurons are pre-incubated with the inhibitors P11 (Catalog #4744, Tocris Bioscience, Bristol, United Kingdom) and LM609 (Catalog #MAB1876, Millipore Sigma, Burlington, Mass., United States of America) or vehicle for 10 minutes and further stimulated with periostin or capsaicin in the presence of inhibitors. For Echistatin (Catalog #3202/100U, R&D Biosystems, Minneapolis, Minn., United States of America), MK-0429, and SB273005 (Catalog #S75-40, Selleck Chemicals Llc, Houston, Tex., United States of America), the DRG neurons were perfused with a normal Locke buffer vehicle or modified Locke buffer as described below. The values were normalized with KCl ([…]) to identify neuronal responses in all the calcium response data below.

C57BL6J mice = test: Mouse cheek itch/pain model; assay type: in vivo; details: periostin 5 μg/20 μl into the cheek
Method: All behavioral experiments were conducted during the light cycle at ambient temperature (23° C.). Behavioral assessment of scratching behavior was conducted as described previously (Mishra et al., 2011). Briefly, mice were injected intradermal into the nape of the neck with periostin (R&D), histamine, and chloroquine (all Millipore-Sigma) as previously described (Shimada and LaMotte, 2008). Compounds were diluted in PBS and the same was used as a vehicle. […] Additionally, cilengitide and periostin were combined together (mix) and injected i.d. into the dorsal neck of mouse. Scratching behavior was recorded for 30 minutes and data was presented in bouts per 30 minutes for mice. […] For eye wipes assay, periostin and capsaicin were dropped on mouse cornea and counted wipes for 1-minute. […] For dog's study, periostin (25 μg/25 μl) was injected in the dorsal neck (s.c.) and behavior was recorded and quantified for 30 minutes as “duration of pruritus manifestation” (DPM), as described earlier (Paps et al., 2016). […] When different raters separately scored a single tape, the ratings indicated high interrater reliability (coefficient of correlation, r>0.95). This method of itch readout in NHP has been used and accepted (Ko and Naughton, 2000). The behavior was recorded for 30 minutes duration and number of scratches quantified. […]

T1 sequence (Q704Y3 whole entry, the tested form may be a part): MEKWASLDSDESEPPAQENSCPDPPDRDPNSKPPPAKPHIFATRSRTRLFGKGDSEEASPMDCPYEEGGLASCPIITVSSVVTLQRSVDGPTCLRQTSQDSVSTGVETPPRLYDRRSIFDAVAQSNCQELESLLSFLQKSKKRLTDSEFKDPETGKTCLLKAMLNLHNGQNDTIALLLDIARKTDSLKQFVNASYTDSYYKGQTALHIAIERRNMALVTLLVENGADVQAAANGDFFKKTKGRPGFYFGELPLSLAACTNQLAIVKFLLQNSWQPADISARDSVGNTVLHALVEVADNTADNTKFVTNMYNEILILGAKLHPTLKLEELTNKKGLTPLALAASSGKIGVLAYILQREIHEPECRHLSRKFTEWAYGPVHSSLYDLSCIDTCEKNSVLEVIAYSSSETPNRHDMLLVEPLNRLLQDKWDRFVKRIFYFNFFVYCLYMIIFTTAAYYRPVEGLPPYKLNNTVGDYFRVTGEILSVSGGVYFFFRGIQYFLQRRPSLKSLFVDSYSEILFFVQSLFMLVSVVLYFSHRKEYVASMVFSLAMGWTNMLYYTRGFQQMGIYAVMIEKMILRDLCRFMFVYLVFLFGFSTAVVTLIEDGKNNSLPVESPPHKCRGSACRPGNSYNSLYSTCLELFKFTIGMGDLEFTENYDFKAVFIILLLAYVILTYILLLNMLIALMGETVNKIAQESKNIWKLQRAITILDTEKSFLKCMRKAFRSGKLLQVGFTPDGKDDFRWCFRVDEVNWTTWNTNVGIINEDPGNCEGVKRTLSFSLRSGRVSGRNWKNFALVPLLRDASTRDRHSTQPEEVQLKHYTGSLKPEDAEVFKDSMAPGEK

Molecule	capsaicin-induced calcium response (TRPV1 receptor)	scratching behavior, cheek injection (C57BL6J mice)	wiping (pain behavior), cheek injection (C57BL6J mice; compared to capsaicin)
CC(C)[C@H]1C(=O)N[C@@H](CCCN=C(N)N)C(=O)NCC(=O)N[C@@H](CC(=O)O)C(=O)N[C@H](Cc2ccccc2)C(=O)N1C [cilengitide, cyclo RGDf-n(Me)V]	did not reduce	–	–
B1	–	robust scratching behavior similar to that of histamine	did not induce wiping
